Blank lines part the entries; values can stand above or below the binder they belong to. Square brackets hold non-standard residues; d marks the D form. Ends that are not written are not given here. Michael acceptor = not defined here
Key:
[1] = target: human cathepsin S wild-type, amino acids 17 to 331, C-terminal His-tag (CTSS-His) (human, UniProt P25774 115-331); test: cell-based or functional assay
[2] = target: purified cathepsin B (CTSB), purchased from RndSystems (UniProt P07858 80-333); test: cell-based or functional assay

human cathepsin S wild-type, amino acids 17 to 331, C-terminal His-tag (CTSS-His), sequence (P25774 115-331 limits assumed, form in doubt): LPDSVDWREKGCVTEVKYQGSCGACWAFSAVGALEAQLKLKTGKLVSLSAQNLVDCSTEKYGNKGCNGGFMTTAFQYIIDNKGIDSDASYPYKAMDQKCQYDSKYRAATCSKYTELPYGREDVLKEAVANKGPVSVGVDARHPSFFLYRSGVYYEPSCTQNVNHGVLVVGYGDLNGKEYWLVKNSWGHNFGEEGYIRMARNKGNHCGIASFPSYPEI

IC50, CTSS activity, FRET assay dose-response [1]: 0.0493 µM
B1: Non-natural peptide inhibitor C10, KHRM(Y)VMW (peptide)
peptide: KHRM[Michael acceptor]VMW
modifications: not fully specified; reading uncertain

IC50, CTSB activity, FRET assay dose-response [2]: 61.9 nM | IC50, CTSS activity, FRET assay dose-response [1]: 86.6 µM
B2: Non-natural peptide inhibitor D5, KRRY(Y)WMW (peptide)
peptide: KRRY[Michael acceptor]WMW
modifications: not fully specified; reading uncertain

From patent US20240352070A1 (ECOLE POLYTECHNIQUE FEDERALE DE LAUSANNE EPFL, published 2024)
